# Reference: publication doi:10.1101/2022.09.29.510028 (bioRxiv, 2022)
# “And” between values parts separate entries of the source, which are not always exact repeats. Identical values can stand only once. Like-named read-outs stand apart in the source and are kept apart here.
# B1: NPM1_(120) (N-terminal domain, residues 1-120) (domain or fragment)
# chain: MEDSMDMDMSPLRPQNYLFGCELKADKDYHFKVDNDENEHQLSLRTVSLGAGAKDELHIVEAEAMNYEGSPIKVTLATLKMSVQPTVSLGGFEITPPVVLRLKCGSGPVHISGQHLVAVE
# How the values were obtained:
# Test in all cases: native MS
# native MS [1] = target: the molecule itself
# [2] = target: B1
# [3] = target: Nucleophosmin 1, full-length (FL NPM1) (human)
# native MS [4] = target: the molecule itself; remark: listed apart in the source
binder,measurement,setting,value
NPM1_(ΔIDR) (NTD and CTD linked without the IDR) (other) MEDSMDMDMSPLRPQNYLFGCELKADKDYHFKVDNDENEHQLSLRTVSLGAGAKDELHIVEAEAMNYEGSPIKVTLATLKMSVQPTVSLGGFEITPPVVLRLKCGSGPVHISGQHLVAVEPSSVEDIKAKMQASIEKGGSLPKVEAKFINYVKNCFRMTDQEAIQDLWQWRKSL,stoichiometry N,native MS [1],10 and 5
RRRREGKTDYYARKRLV [rpL5_(21-37) (residues 21-37 of ribosomal protein L5)],binding result,[2],binds
same,binding result,[3],binds
"NPM1_(188) (NTD and the acidic regions of the IDR, residues 1-188) (domain or fragment) MEDSMDMDMSPLRPQNYLFGCELKADKDYHFKVDNDENEHQLSLRTVSLGAGAKDELHIVEAEAMNYEGSPIKVTLATLKMSVQPTVSLGGFEITPPVVLRLKCGSGPVHISGQHLVAVEEDAESEDEEEEDVKLLSISGKRSAPGGGSKVPQKKVKLAADEDDDDDDEEDDDEDDDDDDFDDEEAEE",stoichiometry N,native MS [1],5 and 10
B1,stoichiometry N,native MS [4],≥ 25 subunits
